The values that follow come from IntAct's records for PubMed 20023629.

This experiment has as its target mcl1_human MCL1 (UniProt Q07820).

Chain of mcl1_human MCL1 (Q07820 whole entry): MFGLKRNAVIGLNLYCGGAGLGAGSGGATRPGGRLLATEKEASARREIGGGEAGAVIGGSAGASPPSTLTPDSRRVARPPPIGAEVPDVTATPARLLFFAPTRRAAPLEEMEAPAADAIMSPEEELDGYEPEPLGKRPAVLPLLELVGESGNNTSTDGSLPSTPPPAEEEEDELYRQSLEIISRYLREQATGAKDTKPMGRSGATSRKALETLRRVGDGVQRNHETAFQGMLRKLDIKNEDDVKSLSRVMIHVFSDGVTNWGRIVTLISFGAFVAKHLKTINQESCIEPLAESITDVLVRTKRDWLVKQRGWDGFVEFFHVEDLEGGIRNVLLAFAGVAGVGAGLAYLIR

For the substance “Ubiquitin carboxyl-terminal hydrolase 9X (Homo sapiens), Q93008 C1566S”, the “effect of a mutation on the interaction” value was “disrupting interaction”.
